Results from patent publication US20150011462A1 (Novo Nordisk, published 2015).
Numbered stars: 1 amine (or outer) side, 2 acyl side, 3 side chain; on linkers, the order of the positions; unused ones are H or OH. Square brackets hold non-standard residues; d marks the D form. Side chains are listed from the residue outwards. Ends that are not written are not given here. * marks the point of attachment. C22 diacid = O=C(O)CCCCCCCCCCCCCCCCCCCCC(=O)*; C20 diacid = O=C(O)CCCCCCCCCCCCCCCCCCC(=O)*; γGlu = O=C(O)[C@H](CCC(=O)[*:2])N[*:1]; εLys = N[C@@H](CCCCN[*:1])C(=O)[*:2]; Trx = NC[C@H]1CC[C@H](C(=O)O)CC1; AEEA = NCCOCCOCC(=O)O; Aib = CC(C)(N)C(=O)O

Legend:
human GLP-1 receptor [1] = molecular target: T1, human GLP-1 receptor (human, UniProt P43220 24-463); assay: cell-based or functional assay
human GLP-1 receptor [2] = molecular target: T1, human GLP-1 receptor; assay: competitive binding (SPA): displacement of 125I-GLP-1(7-36)NH2 from BHK cell membranes with human GLP-1 receptor; high HSA (2.0% final)
Description: (§1) For the receptor binding assay in the presence of low HSA (0.005%) 50 μl of the assay buffer was added to each well of an assay plate. […] For the receptor binding assay in the presence of high HSA (2%) 50 μl of the 8% albumin stock was added to each well of an assay plate. […] Cell membrane aliquots were thawed and diluted to their working concentration. Fifty μl were added to each well in the assay plate. […] WGA SPA beads were suspended in assay buffer at 20 mg/ml. The suspension was diluted to 10 mg/ml in assay buffer just prior to addition to the assay plate. Fifty μl were added to each well in the assay plate. […] A 25 μl aliquot was reserved for measuring total counts/well. […] The assay plate was incubated for 2 h at 30° C. […] The assay plate was centrifuged for 10 min. […] The assay plate was read in a Packard TopCount NXT instrument.

human GLP-1 receptor [3] = molecular target: T1, human GLP-1 receptor; assay: competitive binding (SPA): displacement of 125I-GLP-1(7-36)NH2 from BHK cell membranes with human GLP-1 receptor; low HSA (max. 0.001% final)
Description: as §1

| EC50 (pM), in vitro potency, CRE luciferase reporter gene assay in BHK cells expressing the human GLP-1 receptor (human GLP-1 receptor [1]) [pM] | IC50 (human GLP-1 receptor [2]) [nM] | IC50 (human GLP-1 receptor [3]) [nM] | Binder |
| --- | --- | --- | --- |
| 381 | 197 | 2.2 | H[Aib]EGTFTSDVSSYLEEQAAREFIAWLVRGRGK([εLys-εLys-γGlu-Trx-C20 diacid])GGSK([εLys-εLys-γGlu-Trx-C20 diacid]) (Double-acylated, C-terminally extended GLP-1 analogue made by SPPS) |
| 101 | 21 | 1.6 | H[Aib]EGTFTSDVSSYLEEQAAREFIAWLVRGRGK([AEEA-AEEA-γGlu-Trx-C22 diacid])GGSK([AEEA-AEEA-γGlu-Trx-C22 diacid]) (Double-acylated, C-terminally extended GLP-1 analogue made by SPPS) |
